One substance from PMC7597677 can be followed below.

This experiment addresses cGMP phosphodiesterase 6 (PDE6) hetero-tetramer, native bovine (bovine) (UniProt P11541). The experiment is described as follows: cryo-EM structure.
UniProt P11541, sequence (P11541 whole entry, chain 1 of 3): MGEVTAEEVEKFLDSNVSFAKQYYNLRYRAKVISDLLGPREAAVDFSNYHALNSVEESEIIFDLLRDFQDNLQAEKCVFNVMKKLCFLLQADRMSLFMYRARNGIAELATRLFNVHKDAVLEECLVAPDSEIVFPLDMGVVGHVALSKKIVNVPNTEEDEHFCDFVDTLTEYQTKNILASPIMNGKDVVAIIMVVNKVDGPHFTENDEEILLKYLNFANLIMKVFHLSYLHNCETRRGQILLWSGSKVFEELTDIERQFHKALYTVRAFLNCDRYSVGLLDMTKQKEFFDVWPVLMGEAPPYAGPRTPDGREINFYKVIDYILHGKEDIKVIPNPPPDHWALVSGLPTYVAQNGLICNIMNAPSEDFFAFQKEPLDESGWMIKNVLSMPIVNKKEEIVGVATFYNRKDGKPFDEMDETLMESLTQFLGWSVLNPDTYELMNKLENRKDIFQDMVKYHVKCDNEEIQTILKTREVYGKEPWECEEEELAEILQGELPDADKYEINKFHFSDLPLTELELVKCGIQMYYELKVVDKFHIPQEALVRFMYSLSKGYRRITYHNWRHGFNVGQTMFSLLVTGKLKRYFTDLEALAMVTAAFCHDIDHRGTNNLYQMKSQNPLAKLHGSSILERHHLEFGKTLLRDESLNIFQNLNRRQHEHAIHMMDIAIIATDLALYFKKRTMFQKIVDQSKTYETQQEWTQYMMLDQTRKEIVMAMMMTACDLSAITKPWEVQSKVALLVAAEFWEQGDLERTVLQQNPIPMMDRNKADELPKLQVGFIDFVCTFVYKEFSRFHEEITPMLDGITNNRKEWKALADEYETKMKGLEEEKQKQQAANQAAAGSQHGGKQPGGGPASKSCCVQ
UniProt P11541, sequence (P23439 whole entry, chain 2 of 3, further chain): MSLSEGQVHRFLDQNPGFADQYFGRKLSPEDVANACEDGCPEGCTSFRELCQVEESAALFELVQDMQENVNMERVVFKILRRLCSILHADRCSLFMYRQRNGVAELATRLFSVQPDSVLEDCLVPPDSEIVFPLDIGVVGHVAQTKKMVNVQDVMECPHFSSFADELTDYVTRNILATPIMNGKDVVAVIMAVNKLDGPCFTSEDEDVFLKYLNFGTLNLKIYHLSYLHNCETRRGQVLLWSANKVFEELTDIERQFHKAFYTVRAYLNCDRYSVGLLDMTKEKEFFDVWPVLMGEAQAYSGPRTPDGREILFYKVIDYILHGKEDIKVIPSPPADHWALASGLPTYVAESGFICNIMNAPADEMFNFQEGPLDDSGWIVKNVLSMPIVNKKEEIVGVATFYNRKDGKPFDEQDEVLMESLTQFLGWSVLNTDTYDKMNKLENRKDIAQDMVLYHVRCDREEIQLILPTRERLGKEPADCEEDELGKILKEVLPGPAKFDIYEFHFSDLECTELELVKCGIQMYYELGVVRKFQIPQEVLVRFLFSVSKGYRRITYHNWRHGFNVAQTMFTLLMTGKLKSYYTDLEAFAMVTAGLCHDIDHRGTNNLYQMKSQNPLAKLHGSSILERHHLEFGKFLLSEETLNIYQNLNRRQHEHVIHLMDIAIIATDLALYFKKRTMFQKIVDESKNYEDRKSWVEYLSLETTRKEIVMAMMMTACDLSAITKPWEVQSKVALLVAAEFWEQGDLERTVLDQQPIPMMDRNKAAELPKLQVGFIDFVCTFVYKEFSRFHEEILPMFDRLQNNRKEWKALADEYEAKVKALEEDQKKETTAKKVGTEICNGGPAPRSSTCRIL
UniProt P11541, sequence (P04972 whole entry, chain 3 of 3, further chain): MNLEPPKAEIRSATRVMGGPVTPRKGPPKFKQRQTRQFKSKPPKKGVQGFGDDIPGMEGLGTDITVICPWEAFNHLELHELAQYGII

In turn, “1D4-tagged recombinant GαT subunit (R174C, Q200L), GTP-bound (from UniProt P04695 1-350) (natural protein)” gave a stoichiometry N (GαT·GTP per PDE6 hetero-tetramer) of 2.
